Reference: publication PMC3171579 (ACS combinatorial science, 2011)
Non-standard residues stand in square brackets, D forms with d. *: point of attachment. Dkb = 3,3-dimethyl-2-ketobutyryl, CC(C)(C)C(=O)C(=O)*; d(β3hF) = N[C@@H](CC(=O)O)Cc1ccccc1; Pip = O=C(O)[C@@H]1CCCCN1; Nle = CCCC[C@H](N)C(=O)O

B1: rapalog 2i (peptide)
chain: cyclo(AA[dA][Dkb][Pip][dI]Q)
modifications: also: Dkb 4 joined by ester to 3
B2: rapalog 2k (peptide)
chain: cyclo(AAF[Dkb][Pip][d(β3hF)]Q)
modifications: also: Dkb 4 joined by ester to 3
B3: rapalog 12 (R3 Pro, R4 D-Phe) (peptide)
chain: cyclo(A[dF]P[dA][Dkb][Pip][d(β3hF)]Q)
modifications: also: 5 Dkb: ester to 4
B4: rapalog 12 (R3 Nle, R4 D-Thr) (peptide)
chain: cyclo(A[dT][Nle][dA][Dkb][Pip][d(β3hF)]Q)
modifications: also: 5 Dkb: ester to 4
B5: rapalog 11 (R3 D-Thr, R4 Lys) (peptide)
chain: cyclo(K[dT][dA][Dkb][Pip][d(β3hF)]Q)
modifications: also: ester bond between residues 3 and 4
B6: rapalog 11 (R3 Lys, R4 Gly) (peptide)
chain: cyclo(GK[dA][Dkb][Pip][d(β3hF)]Q)
modifications: also: ester bond between residues 3 and 4
B7: rapalog 11 (R3 Lys, R4 D-Thr) (peptide)
chain: cyclo([dT]K[dA][Dkb][Pip][d(β3hF)]Q)
modifications: also: ester bond between residues 3 and 4
B8: rapalog 11 (R3 Lys, R4 Trp) (peptide)
chain: cyclo(WK[dA][Dkb][Pip][d(β3hF)]Q)
modifications: also: ester bond between residues 3 and 4
B9: rapalog 12 (R3 Lys, R4 Ala) (peptide)
chain: cyclo(AAK[dA][Dkb][Pip][d(β3hF)]Q)
modifications: also: 5 Dkb: ester to 4
B10: rapalog 11 (R3 Pro, R4 Asp) (peptide)
chain: cyclo(DP[dA][Dkb][Pip][d(β3hF)]Q)
modifications: also: ester bond between residues 3 and 4
B11: rapalog 11 (R3 D-Phe, R4 Lys) (peptide)
chain: cyclo(K[dF][dA][Dkb][Pip][d(β3hF)]Q)
modifications: also: ester bond between residues 3 and 4
B12: rapalog 12 (R3 Ala, R4 Lys) (peptide)
chain: cyclo(AKA[dA][Dkb][Pip][d(β3hF)]Q)
modifications: also: 5 Dkb: ester to 4
B13: rapalog 12 (R3 Pro, R4 D-Thr) (peptide)
chain: cyclo(A[dT]P[dA][Dkb][Pip][d(β3hF)]Q)
modifications: also: 5 Dkb: ester to 4
B14: rapalog 11 (R3 D-Val, R4 D-Val) (peptide)
chain: cyclo([dV][dV][dA][Dkb][Pip][d(β3hF)]Q)
modifications: also: ester bond between residues 3 and 4
B15: rapalog 11 (R3 Pro, R4 D-Phe) (peptide)
chain: cyclo([dF]P[dA][Dkb][Pip][d(β3hF)]Q)
modifications: also: 4 Dkb: ester to 3
B16: rapalog 12 (R3 Pro, R4 Gly) (peptide)
chain: cyclo(AGP[dA][Dkb][Pip][d(β3hF)]Q)
modifications: also: 5 Dkb: ester to 4
B17: rapalog 11 (R3 Pro, R4 Trp) (peptide)
chain: cyclo(WP[dA][Dkb][Pip][d(β3hF)]Q)
modifications: also: 4 Dkb: ester to 3
B18: rapalog 11 (R3 Lys, R4 D-Val) (peptide)
chain: cyclo([dV]K[dA][Dkb][Pip][d(β3hF)]Q)
modifications: also: ester bond between residues 3 and 4
B19: rapalog 11 (R3 Pro, R4 D-Thr) (peptide)
chain: cyclo([dT]P[dA][Dkb][Pip][d(β3hF)]Q)
modifications: also: 4 Dkb: ester to 3
B20: rapalog 12 (R3 Lys, R4 Nle) (peptide)
chain: cyclo(A[Nle]K[dA][Dkb][Pip][d(β3hF)]Q)
modifications: also: 5 Dkb: ester to 4
B21: rapalog 12 (R3 Pro, R4 Ala) (peptide)
chain: cyclo(AAP[dA][Dkb][Pip][d(β3hF)]Q)
modifications: also: 5 Dkb: ester to 4
B22: rapalog 12 (R3 D-Val, R4 D-Phe) (peptide)
chain: cyclo(A[dF][dV][dA][Dkb][Pip][d(β3hF)]Q)
modifications: also: 5 Dkb: ester to 4
B23: rapalog 12 (R3 D-Val, R4 D-Val) (peptide)
chain: cyclo(A[dV][dV][dA][Dkb][Pip][d(β3hF)]Q)
modifications: also: 5 Dkb: ester to 4
B24: rapalog 11 (R3 Pro, R4 Ala) (peptide)
chain: cyclo(AP[dA][Dkb][Pip][d(β3hF)]Q)
modifications: also: ester bond between residues 3 and 4
B25: rapalog 12 (R3 D-Phe, R4 Pro) (peptide)
chain: cyclo(AP[dF][dA][Dkb][Pip][d(β3hF)]Q)
modifications: also: 5 Dkb: ester to 4
B26: rapalog 11 (R3 Lys, R4 Pro) (peptide)
chain: cyclo(PK[dA][Dkb][Pip][d(β3hF)]Q)
modifications: also: ester bond between residues 3 and 4
B27: rapalog 12 (R3 Pro, R4 Lys) (peptide)
chain: cyclo(AKP[dA][Dkb][Pip][d(β3hF)]Q)
modifications: also: 5 Dkb: ester to 4
B28: rapalog 11 (R3 D-Thr, R4 Nle) (peptide)
chain: cyclo([Nle][dT][dA][Dkb][Pip][d(β3hF)]Q)
modifications: also: ester bond between residues 3 and 4
B29: rapalog 11 (R3 Pro, R4 Lys) (peptide)
chain: cyclo(KP[dA][Dkb][Pip][d(β3hF)]Q)
modifications: also: 4 Dkb: ester to 3
B30: rapalog 12 (R3 Pro, R4 D-Val) (peptide)
chain: cyclo(A[dV]P[dA][Dkb][Pip][d(β3hF)]Q)
modifications: also: 5 Dkb: ester to 4
B31: rapalog 12 (R3 D-Val, R4 Pro) (peptide)
chain: cyclo(AP[dV][dA][Dkb][Pip][d(β3hF)]Q)
modifications: also: 5 Dkb: ester to 4
B32: rapalog 11 (R3 Pro, R4 D-Val) (peptide)
chain: cyclo([dV]P[dA][Dkb][Pip][d(β3hF)]Q)
modifications: also: 4 Dkb: ester to 3
B33: rapalog 12 (R3 Lys, R4 D-Thr) (peptide)
chain: cyclo(A[dT]K[dA][Dkb][Pip][d(β3hF)]Q)
modifications: also: 5 Dkb: ester to 4
B34: rapalog 12 (R3 D-Phe, R4 Lys) (peptide)
chain: cyclo(AK[dF][dA][Dkb][Pip][d(β3hF)]Q)
modifications: also: 5 Dkb: ester to 4
B35: rapalog 12 (R3 Pro, R4 Asp) (peptide)
chain: cyclo(ADP[dA][Dkb][Pip][d(β3hF)]Q)
modifications: also: 5 Dkb: ester to 4
B36: rapalog 12 (R3 D-Thr, R4 Pro) (peptide)
chain: cyclo(AP[dT][dA][Dkb][Pip][d(β3hF)]Q)
modifications: also: 5 Dkb: ester to 4
B37: rapalog 11 (R3 Lys, R4 Lys) (peptide)
chain: cyclo(KK[dA][Dkb][Pip][d(β3hF)]Q)
modifications: also: ester bond between residues 3 and 4
B38: rapalog 11 (R3 D-Val, R4 D-Phe) (peptide)
chain: cyclo([dF][dV][dA][Dkb][Pip][d(β3hF)]Q)
modifications: also: ester bond between residues 3 and 4
B39: rapalog 11 (R3 Ala, R4 Pro) (peptide)
chain: cyclo(PA[dA][Dkb][Pip][d(β3hF)]Q)
modifications: also: ester bond between residues 3 and 4
B40: rapalog 11 (R3 Pro, R4 Pro) (peptide)
chain: cyclo(PP[dA][Dkb][Pip][d(β3hF)]Q)
modifications: also: 4 Dkb: ester to 3
B41: rapalog 11 (R3 Nle, R4 Lys) (peptide)
chain: cyclo(K[Nle][dA][Dkb][Pip][d(β3hF)]Q)
modifications: also: ester bond between residues 3 and 4
B42: rapalog 11 (R3 Pro, R4 Nle) (peptide)
chain: cyclo([Nle]P[dA][Dkb][Pip][d(β3hF)]Q)
modifications: also: 4 Dkb: ester to 3
B43: rapalog 11 (R3 Lys, R4 Ala) (peptide)
chain: cyclo(AK[dA][Dkb][Pip][d(β3hF)]Q)
modifications: also: ester bond between residues 3 and 4

test system: cyclophilin A (CypA); experiment: not given; settings: cell free assay; cited from earlier work

| Molecule | IC50 [µM] |
| --- | --- |
| CC[C@H]1C[C@H](C)[C@@]2(NC1=O)O[C@@H](C[C@H](O)[C@@H](C)CC/C=C/C=C(\C)[C@@H]1C/C=C/C=C/[C@H](O)[C@H](C)[C@@H](O)[C@@H](CCC(C)=O)C(=O)N[C@@H](C(C)C)C(=O)N[C@@H](Cc3cccc(O)c3)C(=O)N3CCC[C@H](N3)C(=O)O1)[C@H](C)[C@H](O)[C@@H]2C [Sanglifehrin A] | ~0.007 |

target: T1, FK506-binding protein 12 (human, UniProt P62942 1-108); experiment: fluorescence polarisation; settings: not given
T1 sequence (P62942 whole entry): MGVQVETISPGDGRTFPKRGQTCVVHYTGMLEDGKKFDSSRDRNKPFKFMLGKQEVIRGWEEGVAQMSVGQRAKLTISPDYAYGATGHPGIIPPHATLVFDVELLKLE

| IC50 [µM] | Molecule |
| --- | --- |
| 266 | B1 |
| 18 | B2 |

target: T1, FK506-binding protein 12; experiment: fluorescence polarisation; settings: not given; remark: another data set of the same source

| IC50 [µM] | Molecule |
| --- | --- |
| 87 | B3 |
| > 100 | B4 |
| > 100 | B5 |
| 93 | B6 |
| 62 | B7 |
| 12 | B8 |
| > 100 | B9 |
| 21 | B10 |
| > 100 | B11 |
| > 100 | B12 |
| 38 | B13 |
| > 100 | B14 |
| 46 | B15 |
| 6 | B16 |
| 21 | B17 |
| 80 | B18 |
| 41 | B19 |
| > 100 | B20 |
| 21 | B21 |
| > 100 | B22 |
| > 100 | B23 |

| IC50 [µM] | Molecule |
| --- | --- |
| 33 | B24 |
| > 100 | B25 |
| 58 | B26 |
| 29 | B27 |
| > 100 | B28 |
| 36 | B29 |
| 43 | B30 |
| > 100 | B31 |
| 64 | B32 |
| > 100 | B33 |
| > 100 | B34 |
| 3 | B35 |
| > 100 | B36 |
| > 100 | B37 |
| > 100 | B38 |
| > 100 | B39 |
| 27 | B40 |
| > 100 | B41 |
| 71 | B42 |
| > 100 | B43 |
